Experimental data published in US20220387487A1, “COMPOSITIONS AND METHODS FOR TREATMENT OF CANCER” (Aleta Biotherapeutics Inc., priority 2019, published 2022).

Columns and labels:
U937 cells = test: CAR-CD19 T cell cytotoxicity bridged by purified fusion protein, luciferase U937 cells; format: cell-based; settings: FIG. 21B
Procedure: Several fusion proteins were purified and evaluated for their ability to bridge killing of CLL-1 expressing cells by CAR-T cells that target CD19. Luciferase was introduced to U937 cells and […] by lentiviral transduction. On day 1 U937 cells were seeded at 1×10^4 per well of a round-bottom 96 well plate (Thermo Fisher) or 293T-CLL-1 cells were seeded in a flat bottom plate in cell culture media (RPMI 1640, 10% FBS). On day 2, the fusion proteins #357, #330 and #321 were added at 0.2 μg/ml (20 ng/well) with serial 3 fold dilutions where indicated, then left to incubate at 37° C. for 1 hour using the cell culture incubator. […]
On day 3, the plate was spun at 550 RCF for 5 minutes and rinsed with PBS then spun again to remove the PBS. […] The injector added 100 μl of Luciferase assay reagent per well, then the well was read immediately. The plate was then advanced to the next well for a repeat of the inject-then-read process. […]
The % cell death (aka cytotoxicity) was calculated as follows:
% killing=[1−luc reading (experimental wells)/luc reading (tumor cells without CAR T cells)]×100. […]
To test cytoxicity, luciferase labeled Molm14 or U937 cells were targeted for cytotoxic killing using a CAR19 T cell preparation and the purified proteins #330, #410 and #440 added in a dose titration. […] The plates were read in a luminometer with an injector (Glomax Multi Detection System, Promega). […]

CLEC12A = biological target: T1, CLEC12A (Homo sapiens, UniProt Q5QGZ9, K244Q); test: ELISA of fusion proteins, FMC63 coat, biotinylated CLEC12A detection; format: binding
T1 sequence (Q5QGZ9 65-265 K244Q): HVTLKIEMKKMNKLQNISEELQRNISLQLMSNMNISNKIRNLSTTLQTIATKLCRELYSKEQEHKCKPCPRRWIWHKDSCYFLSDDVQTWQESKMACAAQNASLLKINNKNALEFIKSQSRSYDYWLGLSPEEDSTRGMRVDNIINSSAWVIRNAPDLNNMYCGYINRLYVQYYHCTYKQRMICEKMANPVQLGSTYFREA

CD33 = CD33 (Homo sapiens, UniProt P20138); test: ELISA of fusion proteins, FMC63 coat, biotinylated CD33 detection; format: binding
Procedure: ELISAs for binding to CD19, CLEC12A and CD33 were run using purified fusion proteins #330, #410 and #440. A 96 well plate was coated with 1.0 μg/ml FMC63 (Novus) in 0.1 M carbonate, pH 9.5 overnight at 4° C. The plate was blocked with 0.3% non-fat milk in TBS for 1 hour at room temperature. After washing in TBST (0.1 M Tris, 0.5 M NaCl, 0.05% Tween20) 3 times, the fusion protein supernatant was titrated using 3-fold dilutions in 1% BSA in TBS and incubated 1 hour at room temperature. For detection by anti-His, after washing 3 times in TBST, HRP-anti-His (BioLegend) was added at 1:2000. The plate was incubated at room temperature in the dark for 1 hour. For detection of binding to CLEC12A, biotinylated CLEC12A was added at 0.5 μg/ml and incubated for 1 hour. This was followed by adding HRP-SA (Pierce) at 1:2000 and incubated at room temperature in the dark for 1 hour. For testing binding to CD33, biotinylated CD33 was added at 0.5 μg/ml and incubated for 1 hour. This was followed by adding HRP-SA (Pierce) at 1:2000 and incubated at room temperature in the dark for 1 hour. Then, 1-Step Ultra TMB-ELISA (Thermo Fisher) solution, was added and the plate read at […]. Curves were fit using a four-parameter logistic (4 PL) regression to calculate the EC50.

Molm14 cells = test: CAR-CD19 T cell cytotoxicity bridged by purified fusion protein, luciferase Molm14 cells; format: cell-based; settings: FIG. 21A
Procedure: To test cytoxicity, luciferase labeled Molm14 or U937 cells were targeted for cytotoxic killing using a CAR19 T cell preparation and the purified proteins #330, #410 and #440 added in a dose titration. 1×10^4 target cells were added to each well (96 clear round bottom plate) in RPMI medium. The protein titration was started at 180 ng/ml with 3-fold serial titration into corresponding wells (25 μl per well). CAR-CD19 T cells were added at various E:T ratios to the target cells. After 48 hours the plate was centrifuged (450 RCF for 5 minutes) and the cells were washed 1× with PBS then centrifuged a second time. 20 μl lysis buffer was added into each well. The cell lysate was transferred to a 96 opaque white plate. The plates were read in a luminometer with an injector (Glomax Multi Detection System, Promega). The percent killing was calculated based upon the average loss of luminescence of the experimental vs the control (target cell only or target cell plus fusion protein only).

[1] = ELISA, FMC63 coat, biotinylated CD33

B1: #330: fusion protein comprised of a CD19 variant and an anti-CLL-1 VHH (2H3); SEQ ID NO:305 (protein)
chain: MEFGLSWVFLVALFRGVQCQVQLQESGGGLVQAGGSLRLSCVASGSIRSINVMGWYRQAPGKQRELVAACASDGNTYYADSVKGRFTISRDNAEKTVYLQMNNLKPDDTAVYYCDANSRGNYYSGQGTQVTVSSTSGPGGQGAGGGGSGGGGSGGGGSGGGGSPEEPLVVKVEEGDTAALWCLKGTSDGPTQQLTWSRESPLKPFLKYSLGVPGLGVHVRPDAISVVIRNVSQQMGGFYLCQPGPPSEKAWQPGWTVNVEGSGELFRWNVSDLGGLGCGLKNRSSEGPSSPSGKLMSPKLYVWAKDRPEIWEGEPPCLPPRDSLNQSLSRDLTVAPGSTLWLSCGVPPDSVSRGPLSWTHVHPKGPKSLLSLELKDDRPARDMWVMGTSLMLPRATAQDAGKWYCHRGNLTMSFHLEITARPSRHHHHHH
cytotoxicity on U937 cells (U937 cells): highest cytotoxicity | CLEC12A binding EC50 (CLEC12A): 1.4 ng/mL | EC50 (CLEC12A; read-out: CLEC12A binding EC50): 0.0299 nM | CD33 binding EC50 pM (CD33; [1]): ∞ | CD33 binding EC50 ng/ml (CD33; [1]): ∞ | cytotoxicity on Molm14 cells (Molm14 cells): less potent

B2: #440: fusion protein comprising an anti-CLEC12A VHH, an anti-CD33 scFv, and a CD19 ECD; SEQ ID NO:321 (protein)
chain: MEFGLSWVFLVALFRGVQCQVQLVQSGAEVKKPGESVKVSCKASGYTFTNYGMNWVKQAPGQGLEWMGWINTYTGEPTYADKFQGRVTMTTDTSTSTAYMEIRNLGGDDTAVYYCARWSWSDGYYVYFDYWGQGTSVTVSSGGGGSGGGGSGGGGSDIVMTQSPDSLTVSLGERTTINCKSSQSVLDSSTNKNSLAWYQQKPGQPPKLLLSWASTRESGIPDRFSGSGSGTDFTLTIDSPQPEDSATYYCQQSAHFPITFGQGTRLEIKGGGGSGGGGSGGGGSGGGGSQVQLQESGGGLVQAGGSLRLSCVASGSIRSINVMGWYRQAPGKQRELVAACASDGNTYYADSVKGRFTISRDNAEKTVYLQMNNLKPDDTAVYYCDANSRGNYYSGQGTQVTVSSTSGPGGQGAGGGGSGGGGSGGGGSGGGGSPEEPLVVKVEEGDTAALWCLKGTSDGPTQQLTWSRESPLKPFLKYSLGVPGLGVHVRPDAISVVIRNVSQQMGGFYLCQPGPPSEKAWQPGWTVNVEGSGELFRWNVSDLGGLGCGLKNRSSEGPSSPSGKLMSPKLYVWAKDRPEIWEGEPPCLPPRDSLNQSLSRDLTVAPGSTLWLSCGVPPDSVSRGPLSWTHVHPKGPKSLLSLELKDDRPARDMWVMGTSLMLPRATAQDAGKWYCHRGNLTMSFHLEITARPSRHHHHHH
cytotoxicity on U937 cells (U937 cells): essentially the same activity | CD33 binding EC50 (CD33; [1]): 2.1 ng/mL | ELISA binding to CD33 (CD33; Table 10): binds equally well to both components | cytotoxicity on Molm14 cells (Molm14 cells): about equipotent
